From paper PMC9161741

Molecular target: T1, TFB2M T313E (human, UniProt Q9H5Q4 21-396, T313E)
T1 sequence: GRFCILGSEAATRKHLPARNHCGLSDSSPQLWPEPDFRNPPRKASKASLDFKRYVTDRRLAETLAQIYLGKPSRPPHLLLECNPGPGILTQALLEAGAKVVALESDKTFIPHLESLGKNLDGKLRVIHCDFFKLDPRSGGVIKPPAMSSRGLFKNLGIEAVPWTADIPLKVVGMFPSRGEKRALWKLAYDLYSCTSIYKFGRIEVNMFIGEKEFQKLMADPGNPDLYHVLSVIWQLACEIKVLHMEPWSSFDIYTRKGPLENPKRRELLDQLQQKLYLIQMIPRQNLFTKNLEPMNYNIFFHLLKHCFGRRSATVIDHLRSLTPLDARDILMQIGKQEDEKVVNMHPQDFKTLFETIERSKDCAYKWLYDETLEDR
Test: fluorescence anisotropy

B1: LSP (-17 to +19), fluorescein (dsDNA)
DNA 1: AAAAGTGCATACCGCCAAAAGATAAAATTTGAAATC
DNA 2: GATTTCAAATTTTATCTTTTGGCGGTATGCACTTTT
In the case of B1, the Kd is reported as > 150 nM.
